These results are taken from paper PMC6778137, “The midbody interactome reveals unexpected roles for PP1 phosphatases in cytokinesis” (Nature Communications, 2019).

Numbering of substitutions follows the chain as printed.

The target in this test is T1, MBP::PP1β (UniProt P62140 1-327).
T1 construct: PP1β; Expressed from a derivative of plasmid pMH919 carrying MBP instead of 6His; also called MBP-tagged PP1β; source: S. cerevisiae (strain MGY960), purified on amylose resin, eluted with 20 mM maltose
The test can be described thus: pull-down; GST pull-down: GST::MKLP1_(620–858) proteins on Glutathione Sepharose beads mixed with MBP::PP1β purified from yeast; NET-N+ buffer (50 mM Tris-HCl pH 7.4, 150 mM NaCl, 5 mM EDTA, 0.2% NP-40), 60 min at 4 °C, washes with 250 mM NaCl; western blot. The note with it: both partners purified.

T1 sequence (P62140 whole entry): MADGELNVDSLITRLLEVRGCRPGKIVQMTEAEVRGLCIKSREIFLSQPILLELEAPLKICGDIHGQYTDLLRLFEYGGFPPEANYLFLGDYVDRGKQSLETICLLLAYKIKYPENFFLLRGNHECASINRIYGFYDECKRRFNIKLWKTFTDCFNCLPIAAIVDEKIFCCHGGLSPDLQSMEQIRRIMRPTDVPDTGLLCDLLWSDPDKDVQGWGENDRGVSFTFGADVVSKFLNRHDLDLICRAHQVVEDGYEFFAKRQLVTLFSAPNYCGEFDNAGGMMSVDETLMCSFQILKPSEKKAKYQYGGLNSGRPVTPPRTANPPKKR

B1: GST::MKLP1_(620–858) (wild type) (domain or fragment, UniProt Q02241-2 620-856, looked up)
chain: ETTMKWEKECERRVAAKQLEMQNKLWVKDEKLKQLKAIVTEPKTEKPERPSRERDREKVTQRSVSPSPVPLLFQPDQNAPPIRLRHRRSRSAGDRWVDHKPASNMQTETVMQPHVPHAITVSVANEKALAKCEKYMLTHQELASDGEIETKLIKGDIYKTRGGGQSVQFTDIETLKQESPNGSRKRRSSTVAPAQPDGAESEWTDVETRCSVAVEMRAGSQLGPGYQHHAQPKRKKP
notes: Cloned into pDEST15; source: E. coli, purified (Glutathione Sepharose 4B), kept on beads; not shown: GST, N-terminal, kept
Take B1: the binding result is “binds”.

B2: GST::MKLP1_(620–858) AQA mutant (domain or fragment, UniProt Q02241-2 620-856, looked up)
chain: B1 chain with V167A, F169A
notes: Cloned into pDEST15; also called AQA MKLP1; source: E. coli, purified (Glutathione Sepharose 4B), kept on beads; not shown: GST, N-terminal, kept
On to B2, for which the binding result is “binds”.
